Consider two molecules from publication PMC5314767.

Data set [1] concerns the target T1, TFAM (human, UniProt Q00059 43-245).
T1 sequence: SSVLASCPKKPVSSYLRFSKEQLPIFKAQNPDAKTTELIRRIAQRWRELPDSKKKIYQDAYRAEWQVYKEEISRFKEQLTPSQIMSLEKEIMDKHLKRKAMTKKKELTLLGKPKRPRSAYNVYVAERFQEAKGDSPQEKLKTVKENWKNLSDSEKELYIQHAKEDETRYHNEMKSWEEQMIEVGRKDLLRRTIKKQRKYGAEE
Kind of data set: EMSA.

The target of a further data set is POLRMT (human, UniProt O00411 43-1230). Kind of data set: fluorescence anisotropy.
A further data set has as its target POLRMT;TFB2M (human;human, UniProt O00411;Q9H5Q4 43-1230;21-396, |). Kind of data set: fluorescence anisotropy. A general note: In fluorescence polarisation assays a small probe gives low polarisation when free and higher when bound to something large.
A further data set has as its target POLRMT;TFAM (human;human, UniProt O00411;Q00059 43-1230;43-245, |). Nature of the data set: fluorescence anisotropy.
The target in a further data set is POLRMT;TFAM;TFB2M (human;human;human, UniProt O00411;Q00059;Q9H5Q4 43-1230;43-245;21-396, ||). Kind of data set: fluorescence anisotropy.
Sequence of POLRMT;TFAM;TFB2M (O00411 43-1230, chain 1 of 2): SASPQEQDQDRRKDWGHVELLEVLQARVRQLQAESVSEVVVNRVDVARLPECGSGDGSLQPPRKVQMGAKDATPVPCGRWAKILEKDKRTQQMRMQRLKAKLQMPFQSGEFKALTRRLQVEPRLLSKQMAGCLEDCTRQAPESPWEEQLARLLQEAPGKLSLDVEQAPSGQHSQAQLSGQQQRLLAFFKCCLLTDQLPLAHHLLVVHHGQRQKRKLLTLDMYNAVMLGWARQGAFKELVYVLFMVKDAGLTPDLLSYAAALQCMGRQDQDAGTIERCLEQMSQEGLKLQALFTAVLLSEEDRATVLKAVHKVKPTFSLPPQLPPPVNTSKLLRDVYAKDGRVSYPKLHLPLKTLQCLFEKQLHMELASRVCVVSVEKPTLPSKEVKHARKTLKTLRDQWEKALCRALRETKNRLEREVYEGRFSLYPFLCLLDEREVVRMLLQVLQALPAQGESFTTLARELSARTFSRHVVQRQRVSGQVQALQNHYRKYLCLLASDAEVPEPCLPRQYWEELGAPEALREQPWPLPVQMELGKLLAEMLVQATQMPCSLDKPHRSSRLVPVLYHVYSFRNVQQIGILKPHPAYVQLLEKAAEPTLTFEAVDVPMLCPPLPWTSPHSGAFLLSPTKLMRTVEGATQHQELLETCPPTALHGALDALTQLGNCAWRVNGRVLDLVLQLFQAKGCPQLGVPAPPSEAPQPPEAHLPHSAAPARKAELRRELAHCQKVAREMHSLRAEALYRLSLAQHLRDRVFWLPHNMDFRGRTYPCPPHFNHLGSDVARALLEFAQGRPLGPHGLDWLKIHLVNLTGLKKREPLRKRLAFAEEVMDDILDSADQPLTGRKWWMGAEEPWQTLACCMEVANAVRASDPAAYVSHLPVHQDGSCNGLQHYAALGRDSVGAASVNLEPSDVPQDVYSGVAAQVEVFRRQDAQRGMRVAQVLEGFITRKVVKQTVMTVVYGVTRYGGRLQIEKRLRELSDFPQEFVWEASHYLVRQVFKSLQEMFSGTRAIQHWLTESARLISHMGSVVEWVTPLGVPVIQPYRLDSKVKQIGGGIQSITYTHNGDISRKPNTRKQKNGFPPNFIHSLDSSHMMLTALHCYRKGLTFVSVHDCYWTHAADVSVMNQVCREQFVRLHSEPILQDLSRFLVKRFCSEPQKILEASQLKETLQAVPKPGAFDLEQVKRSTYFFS
Sequence of POLRMT;TFAM;TFB2M (Q9H5Q4 21-396, chain 3 of 2): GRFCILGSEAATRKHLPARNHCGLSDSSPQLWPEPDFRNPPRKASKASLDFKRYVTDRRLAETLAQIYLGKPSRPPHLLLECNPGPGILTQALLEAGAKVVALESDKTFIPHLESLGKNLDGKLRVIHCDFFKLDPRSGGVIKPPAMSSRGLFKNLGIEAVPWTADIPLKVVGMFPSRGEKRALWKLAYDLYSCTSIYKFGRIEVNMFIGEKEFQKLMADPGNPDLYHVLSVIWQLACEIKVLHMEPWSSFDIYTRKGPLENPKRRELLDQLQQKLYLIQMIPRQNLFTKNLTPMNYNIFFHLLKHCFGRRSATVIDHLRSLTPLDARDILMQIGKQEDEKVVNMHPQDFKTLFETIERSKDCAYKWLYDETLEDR
The target in data set [2] is T1, TFAM. Nature of the data set: fluorescence anisotropy.

Sequence of POLRMT;TFAM (O00411 43-1230, one chain of several): as the sequence (O00411 43-1230, chain 1 of 2) above
Sequence of POLRMT;TFB2M (O00411 43-1230, chain 1 of 2): as above
Sequence of POLRMT;TFB2M (Q9H5Q4 21-396, chain 2 of 2): as the sequence (Q9H5Q4 21-396, chain 3 of 2) above
Sequence of POLRMT (O00411 43-1230): as the sequence (O00411 43-1230, chain 1 of 2) above

B1: LSP -41 to -12 upstream fragment (dsDNA)
DNA 1: TGTGTTAGTTGGGGGGTGACTGTTAAAAGT
DNA 2: ACTTTTAACAGTCACCCCCCAACTAACACA
As for B1, the binding result with TFAM [1] is “binds”. For the same molecule, the equilibrium dissociation constant (Kd) (in general, a measure of binding affinity in units of concentration) with POLRMT stood at 8 nM; in the data set with POLRMT;TFB2M, 5 nM.

B2: LSP -41 to +10 (dsDNA)
DNA 1: TGTGTTAGTTGGGGGGTGACTGTTAAAAGTGCATACCGCCAAAAGATAAAA
DNA 2: TTTTATCTTTTGGCGGTATGCACTTTTAACAGTCACCCCCCAACTAACACA
B2: the dissociation constant Kd in the data set with POLRMT;TFAM came to 3 nM; with POLRMT;TFAM;TFB2M, 4 nM; with TFAM [2], 7 nM.
